Experimental data from patent publication US8278063B2, “Methods for degrading toxic compounds” (Commonwealth Scientific and Industrial Research Organisation, priority 2007, dated 2012).

What was measured:
[1] = target: MheI (Nocardioides sp., UniProt C8CP46); assay: Enzyme assays and determination of kinetic constants of purified MheI (HPLC); details: 1-40 μM carbendazim, 200 mM sodium phosphate buffer, 22° C.
Method: (§1) Enzyme assays were performed in 96 well microtiter plates (Agilent catalogue number) at 22° C. The assay mixture typically contained 20 μg bovine serum albumin, 0.022 μg purified MheI and 1-40 μM carbendazim in a final volume of 200 μl of 200 mM sodium phosphate buffer. Enzymatic reaction was stopped by adding 5 μl of formic acid after 10 minutes and the initial velocities were measured using HPLC. All these assays were performed in triplicate.

[2] = system: COC(=O)Nc1nc2ccccc2[nH]1; assay: purified protein, by the assay type; details: other: purified MheI, 1-40 μM carbendazim, 200 mM sodium phosphate buffer, 22° C.
Method: as §1

Chain of MheI (C8CP46 whole entry): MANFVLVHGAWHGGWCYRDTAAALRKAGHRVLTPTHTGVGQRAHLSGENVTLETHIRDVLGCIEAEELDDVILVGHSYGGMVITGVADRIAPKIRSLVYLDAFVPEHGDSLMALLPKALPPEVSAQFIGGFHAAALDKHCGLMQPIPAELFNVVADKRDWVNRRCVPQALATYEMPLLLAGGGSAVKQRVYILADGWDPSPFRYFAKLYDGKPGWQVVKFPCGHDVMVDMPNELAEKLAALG

COC(=O)Nc1nc2ccccc2[nH]1 [carbendazim]
Km [1]: 6.1 µM

MheI (Nocardioides sp. SG-4G)
Km [2]: 6.1 µM | kcat [2]: 120 per second
